From patent US20220387487A1, “COMPOSITIONS AND METHODS FOR TREATMENT OF CANCER” (Aleta Biotherapeutics Inc., priority 2019, published 2022) come the findings set out here.

The labels stand for the following.
B1: W264A: CD19 variant (protein)
chain: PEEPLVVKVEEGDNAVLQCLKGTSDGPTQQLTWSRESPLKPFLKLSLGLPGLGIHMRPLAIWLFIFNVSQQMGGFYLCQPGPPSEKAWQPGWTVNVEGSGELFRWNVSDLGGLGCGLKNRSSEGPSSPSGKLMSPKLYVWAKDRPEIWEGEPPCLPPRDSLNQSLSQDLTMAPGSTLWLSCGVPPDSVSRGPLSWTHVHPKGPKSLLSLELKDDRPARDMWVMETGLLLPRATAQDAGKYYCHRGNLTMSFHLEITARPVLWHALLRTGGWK
B2: F64G: CD19 variant (protein)
chain: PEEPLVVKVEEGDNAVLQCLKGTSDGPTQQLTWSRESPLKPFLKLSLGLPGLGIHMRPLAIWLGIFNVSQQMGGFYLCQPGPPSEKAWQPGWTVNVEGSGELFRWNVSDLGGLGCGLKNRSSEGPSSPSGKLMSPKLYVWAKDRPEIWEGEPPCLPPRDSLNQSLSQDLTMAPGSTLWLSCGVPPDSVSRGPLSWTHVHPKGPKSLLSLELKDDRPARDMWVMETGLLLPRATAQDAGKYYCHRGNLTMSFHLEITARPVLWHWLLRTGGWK
B3: W62E: CD19 variant (protein)
chain: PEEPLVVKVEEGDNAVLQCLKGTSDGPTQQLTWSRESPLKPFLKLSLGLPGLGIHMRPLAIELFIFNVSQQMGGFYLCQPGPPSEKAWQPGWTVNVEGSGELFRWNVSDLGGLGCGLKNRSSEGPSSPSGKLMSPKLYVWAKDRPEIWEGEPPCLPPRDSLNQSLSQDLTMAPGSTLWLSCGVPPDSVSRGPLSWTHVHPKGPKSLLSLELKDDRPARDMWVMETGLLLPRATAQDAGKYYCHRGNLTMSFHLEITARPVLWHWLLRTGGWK
B4: G269L: CD19 variant (protein)
chain: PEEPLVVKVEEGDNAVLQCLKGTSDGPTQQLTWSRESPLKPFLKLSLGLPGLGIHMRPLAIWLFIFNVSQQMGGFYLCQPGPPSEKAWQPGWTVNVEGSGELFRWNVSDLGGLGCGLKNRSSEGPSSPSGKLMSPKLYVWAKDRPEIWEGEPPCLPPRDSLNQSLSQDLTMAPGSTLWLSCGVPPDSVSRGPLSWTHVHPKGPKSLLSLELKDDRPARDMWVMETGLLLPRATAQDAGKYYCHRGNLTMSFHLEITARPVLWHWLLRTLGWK
B5: A257R: CD19 variant (protein)
chain: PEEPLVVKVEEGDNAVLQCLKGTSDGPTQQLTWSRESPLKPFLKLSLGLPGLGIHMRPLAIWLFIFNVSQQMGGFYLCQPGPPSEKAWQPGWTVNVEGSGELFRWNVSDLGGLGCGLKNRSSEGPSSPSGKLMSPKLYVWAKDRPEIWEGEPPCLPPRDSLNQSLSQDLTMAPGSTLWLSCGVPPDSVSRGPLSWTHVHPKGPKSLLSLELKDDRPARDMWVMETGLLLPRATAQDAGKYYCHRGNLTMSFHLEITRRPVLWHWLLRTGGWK
B6: F66R: CD19 variant (protein)
chain: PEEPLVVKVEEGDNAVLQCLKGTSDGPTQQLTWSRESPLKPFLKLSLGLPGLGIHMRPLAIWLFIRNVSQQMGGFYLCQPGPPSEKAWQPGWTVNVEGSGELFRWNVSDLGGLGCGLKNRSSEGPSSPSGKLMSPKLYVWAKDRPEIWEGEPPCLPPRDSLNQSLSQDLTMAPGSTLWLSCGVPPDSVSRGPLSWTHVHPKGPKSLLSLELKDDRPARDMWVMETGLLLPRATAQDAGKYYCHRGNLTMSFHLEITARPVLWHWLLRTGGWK
B7: V16W: CD19 variant (protein)
chain: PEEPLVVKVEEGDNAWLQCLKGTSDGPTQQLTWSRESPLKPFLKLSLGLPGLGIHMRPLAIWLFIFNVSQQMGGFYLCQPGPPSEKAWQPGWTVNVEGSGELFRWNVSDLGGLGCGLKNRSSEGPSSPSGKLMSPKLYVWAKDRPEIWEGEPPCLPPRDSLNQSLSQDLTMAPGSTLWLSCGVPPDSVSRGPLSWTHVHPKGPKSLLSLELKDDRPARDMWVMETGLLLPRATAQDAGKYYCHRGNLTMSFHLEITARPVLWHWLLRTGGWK

Chain of FMC63 (as listed by the source): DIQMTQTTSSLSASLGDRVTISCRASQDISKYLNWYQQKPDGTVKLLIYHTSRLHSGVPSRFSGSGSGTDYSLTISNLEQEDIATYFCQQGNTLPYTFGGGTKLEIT
Chain of FMC63 (as listed by the source): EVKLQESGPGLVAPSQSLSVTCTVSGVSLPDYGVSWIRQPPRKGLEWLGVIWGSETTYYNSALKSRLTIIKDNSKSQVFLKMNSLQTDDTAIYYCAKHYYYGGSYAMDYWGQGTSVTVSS

The subject of the test is FMC63. Kind of test: CD19 variant binding to anti-CD19 antibody FMC63 (score). The note with it: Table 1A, CD19 single mutants (positions of SEQ ID NO:2).
In the case of B1, the “FMC63 Binding Score” value is 6.3 ± .5.

Consider B2, for which the “FMC63 Binding Score” value is reported as 6. ± .2. The value for B3 was 6.4 ± .7; that for B4 was 6.1 ± .4.

Consider B5, for which the “FMC63 Binding Score” value is recorded as 6.1 ± .5. With B6, the “FMC63 Binding Score” value is given as 6. ± .3. With B7 the figure was 6.7 ± 1.
